Laboratory results taken from US20220363718A1.
Blank lines part the entries; values can stand above or below the binder they belong to. *1 amine or outer side, *2 acyl side, *3 side chain or, on linkers, in order; H or OH if unused. Bridges are numbered along the chain shown (N, C = ends). [ ]: non-standard residue; d: D form. TATA = O=C(CC[*:1])N1CN(C(=O)CC[*:2])CN(C(=O)CC[*:3])C1; Trp(1-Me) = Cn1cc(C[C@H](N)C(=O)O)c2ccccc21; Arg(Me2a) = CN(C)C(=N)NCCC[C@H](N)C(=O)O; Phe(4-F) = N[C@@H](Cc1ccc(F)cc1)C(=O)O; tBuAla = CC(C)(C)C[C@H](N)C(=O)O; NMeD = CN[C@@H](CC(=O)O)C(=O)O; NMeA = CN[C@@H](C)C(=O)O

Biological target: Biotinylated human TSLP (human)
Sequence (chain, as listed by the source limits assumed): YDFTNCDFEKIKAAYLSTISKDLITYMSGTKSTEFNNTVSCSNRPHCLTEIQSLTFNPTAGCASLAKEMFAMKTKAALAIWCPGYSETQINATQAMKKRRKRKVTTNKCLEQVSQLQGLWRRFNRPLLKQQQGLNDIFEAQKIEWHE
Assay: SPR, biotinylated hTSLP on streptavidin chip

- Kd: 2.7 nM
Binder: Ac-C[NMeA][Trp(1-Me)][tBuAla]Q[NMeD]C[Trp(1-Me)][Arg(Me2a)]G[Phe(4-F)]C-NH2 (linker 1-7-12 via TATA) [Example 5]

- Kd: 6 nM
B1: Example 13 (peptide)
peptide: CQXLEDCXXGXC
modifications: not fully specified; N-term acetyl; CQ[TrpMe]LEDC[TrpMe][ADMA]G[4-FPhe]C as printed; 3 Cys on TATA
